This note sets out measurements from US20220081480A1 (Merck KGaA, published 2022).

Values joined by “and” are separate entries in the source; they are usually repeats but may differ in a detail not shown here. Equal entries are not always repeated. Where two headings read alike, the source gives them in different places.

Experiment [1] has as its target T1, cyno TIM-3 on cynoTIM-3-Expi293F cells (cynomolgus monkey).
T1 construct: Membrane-anchored cyno TIM-3 ECD (XP_005558438) transiently expressed on Expi293F cells; not shown: membrane anchor of the expression vector, not described
T1 chain: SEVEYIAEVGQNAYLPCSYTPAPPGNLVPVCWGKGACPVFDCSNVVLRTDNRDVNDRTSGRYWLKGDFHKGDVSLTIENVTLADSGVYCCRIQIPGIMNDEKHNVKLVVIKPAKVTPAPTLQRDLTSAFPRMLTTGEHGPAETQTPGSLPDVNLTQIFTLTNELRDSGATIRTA
In words: flow cytometry on 293F-cynoTIM-3 cells. A general note: A flow cytometer gives signals particle by particle.

Experiment [2] has as its target T2, human TIM-3 on huTIM-3-CHO-S cells (human, UniProt Q8TDQ0 22-202).
T2 construct: Membrane-anchored human TIM-3 ECD (NP_116171) stably expressed on CHO-S cells; also called CHO-S-hTIM3; CHO-S-hTIM-3; not shown: membrane anchor of the expression vector, not described
In words: flow cytometry on CHO-S-hTIM3 cells.

The target in experiment [3] is T2, human TIM-3 on huTIM-3-CHO-S cells. In words: cell-based or functional assay.
Experiment [4] shares this target. Put plainly: FACS on CHO-S-hTIM-3 cells.
For experiment [5], the target named is T3, cyno TIM-3-His6 (cynomolgus monkey).
T3 construct: Made in HEK293 cells; not shown: 6-His tag
T3 chain: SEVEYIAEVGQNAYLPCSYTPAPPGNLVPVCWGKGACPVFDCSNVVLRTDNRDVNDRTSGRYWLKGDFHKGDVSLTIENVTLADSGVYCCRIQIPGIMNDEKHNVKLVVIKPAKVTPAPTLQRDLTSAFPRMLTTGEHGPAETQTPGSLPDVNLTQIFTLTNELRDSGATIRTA
In words: SPR, antibody captured, TIM-3 as analyte.

Experiment [6] has as its target T4, human TIM-3 ECD with 6-His tag (hu TIM-3-His6) (human, UniProt Q8TDQ0 22-200).
T4 construct: Novoprotein Cat# C356; the entry includes the His tag; also called hTIM3-His; human TIM3-His6
In words: SPR, antibody captured, TIM-3 as analyte. Background: SPR reads the build-up and loss of mass on a sensor chip optically.

The target of experiment [7] is T3, cyno TIM-3-His6. In words: ELISA, antigen coated.
For experiment [8], the target named is T5, cyno TIM-3-muFc (cynomolgus monkey).
T5 construct: Made in HEK293 cells; also called cyno TIM3-mFc; not shown: murine Fc
T5 chain: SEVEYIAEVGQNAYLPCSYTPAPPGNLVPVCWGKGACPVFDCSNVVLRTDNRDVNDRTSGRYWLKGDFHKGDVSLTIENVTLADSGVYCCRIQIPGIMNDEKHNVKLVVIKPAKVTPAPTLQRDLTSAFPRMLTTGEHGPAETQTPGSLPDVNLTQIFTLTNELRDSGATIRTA
In words: ELISA, antigen coated. For orientation: ELISA stands for enzyme-linked immunosorbent assay.

The target of experiment [9] is T4, human TIM-3 ECD with 6-His tag (hu …). Put plainly: ELISA, antigen coated.
The target is the same in experiment [10]. Put plainly: SPR (Biacore), relative to 3903E11 (VH1.0, VL1.0).
Experiment [11] concerns the target T3, cyno TIM-3-His6. Put plainly: SPR (Biacore).
Experiment [12] addresses T4, human TIM-3 ECD with 6-His tag (hu …). Put plainly: SPR (Biacore).
Experiment [13] addresses FcRn (UniProt P55899 24-297; P61769 21-119, limits assumed). Put plainly: BLI (Octet), steady state.
In experiment [14] the target is T6, FCγRIIIa (CD16a)_V158 (UniProt P08637 17-208).
T6 construct: Bought
Put plainly: BLI (Octet), antibody on FAB2G tips.

For experiment [15], the target named is T7, FCγRIIa (CD32a)_H131 (UniProt P12318 36-218, limits assumed).
T7 construct: Bought
T7 sequence (looked up): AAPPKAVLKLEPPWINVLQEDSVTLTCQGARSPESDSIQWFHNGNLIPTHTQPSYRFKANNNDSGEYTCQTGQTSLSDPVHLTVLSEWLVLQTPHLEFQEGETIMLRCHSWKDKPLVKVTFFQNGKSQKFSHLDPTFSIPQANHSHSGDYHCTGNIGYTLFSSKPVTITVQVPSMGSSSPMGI
In words: BLI (Octet), antibody on FAB2G tips.

Experiment [16] deals with T8, FCγRI (CD64) (UniProt P12314 16-288).
T8 construct: Bought
In words: BLI (Octet), antibody on FAB2G tips.

The target in experiment [17] is T9, human TIM-3 ECD fused to human IgG1 Fc domain (huTIM-3-Fc) (human, UniProt Q8TDQ0 22-202).
T9 construct: extracellular domain; Bought; Biotinylated (Sulfo-NHS-LC-Biotin) in the galectin-9 ELISAs; also called Human-TIM3-biotin; huTIM-3-Fc-biotin; not shown: human IgG1 Fc domain
In words: competition ELISA: huTIM-3-Fc-biotin (0.5 µg/ml) binding to coated galectin-9.

The target in experiment [18] is T10, wild-type TIM-3 (hu TIM-3), HEK-expressed (human, UniProt Q8TDQ0 22-202, limits assumed).
T10 construct: Soluble protein of the mutagenesis study
Put plainly: SPR.

The target in experiment [19] is T9, human TIM-3 ECD fused to human IgG1 Fc …. In words: ELISA: plate-bound rhTIM-3-Fc pre-incubated with antibody, His-tagged CEACAM1 detected.
Experiment [20] has as its target T10, wild-type TIM-3 (hu TIM-3), …. In words: SPR. This is another data set of the same source.
Experiment [21] has as its target T11, human TIM-3 on primary human blood cells (CD14+ monocytes in whole blood; PBMCs) (human, UniProt Q8TDQ0 22-301).
T11 construct: whole, on cells; Endogenous receptor on donor cells; also called TIM-3 on CD14+ monocytes
In words: flow cytometry on fresh human whole blood, CD14+ monocytes; unoccupied TIM-3 detected with the competing anti-TIM-3 (2E2)-APC; donors KP46231, KP46315, KP46318 (not separated).

Experiment [22] addresses T11, human TIM-3 on primary human blood …. Put plainly: target occupancy on CD14+ monocytes in human whole blood, flow cytometry; free TIM-3 detected with competing anti-TIM-3(2E2)-APC.
For experiment [23] the target is unchanged. Put plainly: flow cytometry on fresh human whole blood, CD14+ monocytes; unoccupied TIM-3 detected with the competing anti-TIM-3 (2E2)-APC; donor KP46233.
The target in experiment [24] is T6, FCγRIIIa (CD16a)_V158. In words: BLI (Octet), steady state.
Experiment [25] deals with T7, FCγRIIa (CD32a)_H131. In words: BLI (Octet), steady state.
Experiment [26] concerns the target T3, cyno TIM-3-His6. Put plainly: SPR, antibody captured, TIM-3 as analyte.
The target of experiment [27] is T12, marmoset TIM-3 ECD with 6-His tag (marmoset TIM-3-His6) (marmoset).
T12 construct: Novoprotein Cat# CM64; the entry includes the His tag
T12 chain: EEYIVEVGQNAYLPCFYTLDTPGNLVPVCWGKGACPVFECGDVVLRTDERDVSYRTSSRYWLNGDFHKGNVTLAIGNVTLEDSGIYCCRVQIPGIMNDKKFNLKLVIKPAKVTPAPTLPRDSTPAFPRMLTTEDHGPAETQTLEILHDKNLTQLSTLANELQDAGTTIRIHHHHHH
In words: SPR, antibody captured, TIM-3 as analyte.

Experiment [28] has as its target T4, human TIM-3 ECD with 6-His tag (hu …). In words: SPR, antibody captured, TIM-3 as analyte. The source holds these as a separate data set.
Experiment [29] has as its target T2, human TIM-3 on huTIM-3-CHO-S cells. Put plainly: flow cytometry on CHO-S-hTIM-3 cells.
Experiment [30] concerns the target T3, cyno TIM-3-His6. Put plainly: ELISA, antigen coated.
The target in experiment [31] is T12, marmoset TIM-3 ECD with 6-His tag …. Put plainly: ELISA, antigen coated.
Experiment [32] deals with T4, human TIM-3 ECD with 6-His tag (hu …). Put plainly: ELISA, antigen coated. The source holds these as a separate data set.
The target of experiment [33] is T8, FCγRI (CD64). In words: BLI (Octet), antibody on FAB2G tips, kinetic fit.
For experiment [34], the target named is T9, human TIM-3 ECD fused to human IgG1 Fc …. In words: competition ELISA: huTIM-3-Fc-biotin (1 µg/ml) binding to coated galectin-9.

B1: Parental Antibody 3903E11 (VL1.0, VH1.0) (antibody, human IgG1, lambda)
heavy: not shown
light: SYELTQPRSVSGSPGQSVTISCTGTSSDVGGYNYVSWYQQHPGKAPKLMIFDVSKRPSGVPDRFSGSKSGNTASLTISGLQAEDEADYYCSSYADSVVFGGGTKVTVLGQPKAAPSVTLFPPSSEELQANKATLVCLISDFYPGAVTVAWKADSSPVKAGVETTTPSKQSNNKYAASSYLSLTPEQWKSHKSYSCQVTHEGSTVEKTVAPTECS
notes: Human IgG1 (IgG1m3), lambda light chain; also called 3903E11 (VH1.0, VL1.0)
Usually EC50 stands for the concentration needed to bring the measured effect to its halfway point. Read a low EC50 as an effect from little substance. For orientation: Kd means the concentration at which binding is half-saturated. Low readings indicate higher affinity, high ones lower affinity. Consider B1, for which the EC50 was found to be 2 nM in [1]; 0.9 nM in experiment [2]; 0.01 nM in [7]; 0.01 nM in [8]; 0.01 nM in experiment [9]. The “ADCC (51Cr release), Donor 1, EC50” value in [3] turned out to be 0.24 nM. Further, the “ADCC (51Cr release), Donor 2, EC50” value in experiment [3] is 0.11 nM. In addition, the “MFI at 0.1 µg/ml” value in experiment [4] came out at 137 MFI. For the same molecule, the “MFI at 1 µg/ml” value in experiment [4] is 1390 MFI. Also, in [4], the “MFI at 10 µg/ml” value worked out at 1490 MFI. The Kd amounted to 12 nM in [5], 3.8 nM in experiment [6], 6.9 nM in experiment [11] and 3.5 nM in experiment [12]. Also, the “Human TIM3 KD Ratio to Parent” value in experiment [10] amounted to 1.

B2: anti-TIM-3-3903E11(VL1.3,VH1.2)-IgG2h(FN-AQ,322A)-delK (antibody)
heavy: not shown
light: QSALTQPRSVSGSPGQSVTISCTGTSSDVGGYNYVSWYQQHPGKAPKLMIYDVSKRPSGVPDRFSGSKSGNTASLTISGLQAEDEADYYCSSYADSVVFGGGTKVTVLGQPKAAPSVTLFPPSSEELQANKATLVCLISDFYPGAVTVAWKADSSPVKAGVETTTPSKQSNNKYAASSYLSLTPEQWKSHKSYSCQVTHEGSTVEKTVAPTECS
notes: Effector-negative engineered IgG2 with IgG1 hinge (C220S), F296A, N297Q, K322A, C-terminal Lys deleted; lambda light chain; also called M6903; copies: 2 + 2
A word on the IC50: it is the concentration needed to halve the response being measured. In the case of B2, the figures for the Kd in [13], in experiment [18] and in experiment [20] were 850 nM, 5.7 nM and 6.2 nM, respectively. Further, the values for the binding result in experiment [14], in experiment [15] and in experiment [16] were “no binding (tested: 4000 nM to 62.5 nM)”, “no binding (tested: 4000 nM to 62.5 nM)” and “no binding (tested: 100 nM to 1.56 nM)”, respectively. In addition, the IC50 was 7.46 nM in experiment [17]; 0.353 nM and 0.053 µg/mL in experiment [19].

B3: anti-TIM-3 (A16-019-1) (antibody)
heavy: not shown
light: QSALTQPRSVSGSPGQSVTISCTGTSSDVGGYNYVSWYQQHPGKAPKLMIYDVSKRPSGVPDRFSGSKSGNTASLTISGLQAEDEADYYCSSYADSVVFGGGTKVTVLGQPKAAPSVTLFPPSSEELQANKATLVCLISDFYPGAVTVAWKADSSPVKAGVETTTPSKQSNNKYAASSYLSLTPEQWKSHKSYSCQVTHEGSTVEKTVAPTECS
notes: Said to be identical to M6903 but produced in Expi293F, not CHOK1SV, cells
What is called EC50 (read off the curve) is the midpoint of the concentration-response curve. A high value points to a need for much substance. As to B3, the entries for the “EC50 (read off the curve)” value in experiment [21] and in [23] were ~0.07 mg/L and ~0.04 mg/L, respectively. For the same molecule, a half-maximal response in experiment [22] (EC50) required 0.111 mg/L.

B4: 3903E11 (VL1.3,VH1.2) IgG1 (antibody)
heavy: not shown
light: QSALTQPRSVSGSPGQSVTISCTGTSSDVGGYNYVSWYQQHPGKAPKLMIYDVSKRPSGVPDRFSGSKSGNTASLTISGLQAEDEADYYCSSYADSVVFGGGTKVTVLGQPKAAPSVTLFPPSSEELQANKATLVCLISDFYPGAVTVAWKADSSPVKAGVETTTPSKQSNNKYAASSYLSLTPEQWKSHKSYSCQVTHEGSTVEKTVAPTECS
notes: also called 3903E11 (VH1.2, VL1.3); anti-TIM3-3903E11(VL1.3, VH1.2)-IgG1; copies: 2 + 2
Consider B4, for which the Kd in [24] came to 100 nM; in [25], 630 nM; in experiment [13] it was 805 nM; in experiment [26], 14 nM; in experiment [27], 11 nM; in experiment [28], 2.4 nM. In addition, the results for the Kd in experiment [33], in experiment [11] and in experiment [12] were 1.7 nM, 5.3 nM and 1.6 nM, respectively. Moreover, the EC50 stood at 2.6 nM in experiment [29], 0.02 nM in [30], 0.01 nM in experiment [31] and 0.01 nM in experiment [32]. For the same molecule, the IC50 in experiment [34] stood at 2.4 nM. For the same molecule, the “MFI at 0.1 µg/ml” value in experiment [4] worked out at 140 MFI. Moreover, the “MFI at 1 µg/ml” value in experiment [4] came to 1310 MFI. Also, the “MFI at 10 µg/ml” value in experiment [4] stood at 1910 MFI.
